According to US20170022281A1 (AbbVie / Abbott, published 2017):

Key:
[1] = target: T1, human PRLR (Biacore antigen) (human, UniProt P16471 25-234, limits assumed); assay: SPR Biacore
T1 construct: The construct injected over captured antibody is not described (a soluble form is likely); also called huPRLR
T1 sequence: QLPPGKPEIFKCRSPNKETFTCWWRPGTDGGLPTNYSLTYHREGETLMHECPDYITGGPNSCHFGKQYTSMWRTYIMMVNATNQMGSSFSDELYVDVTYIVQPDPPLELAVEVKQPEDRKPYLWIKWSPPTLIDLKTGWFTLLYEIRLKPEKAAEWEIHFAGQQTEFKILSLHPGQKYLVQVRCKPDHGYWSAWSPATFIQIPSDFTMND

[2] = target: T2, cyno PRLR (Biacore antigen) (cyno, UniProt A0A2K5WXK1 25-234); assay: SPR Biacore
T2 construct: also called cyPRLR
T2 sequence: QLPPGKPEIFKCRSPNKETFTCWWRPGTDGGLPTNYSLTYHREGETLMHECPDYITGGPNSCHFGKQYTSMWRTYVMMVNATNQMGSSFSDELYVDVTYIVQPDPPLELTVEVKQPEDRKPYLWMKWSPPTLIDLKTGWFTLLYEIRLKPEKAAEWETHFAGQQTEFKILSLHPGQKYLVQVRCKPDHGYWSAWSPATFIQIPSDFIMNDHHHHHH
Outline: (§1)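 Association rate, dissociation rate and dissociation constant were measured by surface plasmon resonance on a Biacore instrument. PRLR antigen was tested at 600 nM, 66.67 nM and 7.41 nM, a 3-point, 9-fold dilution series. Constants came from a 1:1 binding model fit (local Rmax, mass-transport term included) in Biacore T200 Evaluation Software.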

[3] = target: T3, murine PRLR (Biacore antigen) (murine, UniProt Q08501 20-229, limits assumed); assay: SPR Biacore
T3 construct: also called muPRLR
T3 sequence (looked up): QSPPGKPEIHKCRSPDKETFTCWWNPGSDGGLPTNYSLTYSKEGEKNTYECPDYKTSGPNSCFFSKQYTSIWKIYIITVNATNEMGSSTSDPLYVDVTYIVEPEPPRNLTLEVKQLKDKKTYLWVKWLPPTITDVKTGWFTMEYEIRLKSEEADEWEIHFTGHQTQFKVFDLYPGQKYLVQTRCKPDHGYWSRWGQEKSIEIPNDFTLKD
Outline: as §1

[4] = target: T1, human PRLR (Biacore antigen); assay: SPR Biacore; remark: listed apart in the source
Outline: as §1

[5] = target: T4, cyno PRLR ECD-his6 protein (cyno); assay: ELISA on ECD
T4 chain: T2 sequence
Outline: (§2)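 EC50 values derive from fitted binding curves of antibody serial dilutions (1 h) on captured PRLR. Detection used an HRP-conjugated secondary (1 h), TMB development for 3–5 min, an H₂SO₄ stop and a 450 nm read, with all steps in Tween/PBS pH 7.4 buffer.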

[6] = target: T5, human PRLR ECD-Fc fusion protein (human, UniProt P16471 25-233); assay: ELISA on ECD
T5 construct: not shown: Fc region (captured by goat anti-human Fc)
T5 sequence: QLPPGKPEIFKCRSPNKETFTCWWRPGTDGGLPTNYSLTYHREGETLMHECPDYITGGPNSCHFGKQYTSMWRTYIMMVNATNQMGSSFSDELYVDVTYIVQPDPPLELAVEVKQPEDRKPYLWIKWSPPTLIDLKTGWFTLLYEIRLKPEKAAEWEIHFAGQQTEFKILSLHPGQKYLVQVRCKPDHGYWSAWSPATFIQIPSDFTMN
Outline: as §2

[7] = target: T6, human PRLR on cells (human, UniProt P16471 25-622); assay: cell-based or functional assay
T6 sequence: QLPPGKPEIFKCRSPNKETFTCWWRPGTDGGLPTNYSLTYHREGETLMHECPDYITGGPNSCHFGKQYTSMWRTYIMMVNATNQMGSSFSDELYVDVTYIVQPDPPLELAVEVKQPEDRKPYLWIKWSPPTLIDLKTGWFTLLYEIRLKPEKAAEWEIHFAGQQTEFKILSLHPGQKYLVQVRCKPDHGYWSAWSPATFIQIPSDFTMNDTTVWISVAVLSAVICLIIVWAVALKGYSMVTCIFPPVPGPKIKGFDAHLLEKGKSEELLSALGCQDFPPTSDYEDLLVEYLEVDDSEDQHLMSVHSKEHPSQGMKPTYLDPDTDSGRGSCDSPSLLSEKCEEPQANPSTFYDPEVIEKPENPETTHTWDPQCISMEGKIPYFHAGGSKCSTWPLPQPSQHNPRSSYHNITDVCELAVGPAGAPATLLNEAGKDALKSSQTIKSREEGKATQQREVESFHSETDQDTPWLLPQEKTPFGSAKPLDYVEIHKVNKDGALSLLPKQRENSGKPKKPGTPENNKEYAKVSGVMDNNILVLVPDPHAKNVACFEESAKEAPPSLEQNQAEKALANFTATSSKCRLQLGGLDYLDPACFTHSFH

[8] = target: cyno PRLR on Baf3-cyPRLR cells (cyno); assay: cell-based or functional assay
[9] = target: T7, mouse PRLR on Baf3-mPRLR cells (mouse, UniProt Q08501 20-608); assay: cell-based or functional assay
T7 sequence (looked up): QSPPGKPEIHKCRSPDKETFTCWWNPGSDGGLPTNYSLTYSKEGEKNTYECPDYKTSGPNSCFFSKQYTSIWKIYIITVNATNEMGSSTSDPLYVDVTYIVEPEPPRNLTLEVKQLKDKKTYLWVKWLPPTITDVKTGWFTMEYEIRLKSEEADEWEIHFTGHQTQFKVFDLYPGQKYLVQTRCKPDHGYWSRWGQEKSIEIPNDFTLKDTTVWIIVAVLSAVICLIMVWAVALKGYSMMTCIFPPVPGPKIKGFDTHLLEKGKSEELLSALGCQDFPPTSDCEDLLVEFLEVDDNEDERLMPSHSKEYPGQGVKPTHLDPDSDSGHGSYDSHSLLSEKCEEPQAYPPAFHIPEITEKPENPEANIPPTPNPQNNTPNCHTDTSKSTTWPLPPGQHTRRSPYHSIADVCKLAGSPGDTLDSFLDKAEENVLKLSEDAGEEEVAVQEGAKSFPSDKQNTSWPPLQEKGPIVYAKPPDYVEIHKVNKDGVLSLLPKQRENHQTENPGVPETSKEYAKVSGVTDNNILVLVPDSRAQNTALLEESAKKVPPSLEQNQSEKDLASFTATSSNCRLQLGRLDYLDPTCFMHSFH

B1: Ab36 (antibody, human IgG1, kappa, V domains shown)
VH: EVQLVQSGAEVKKPGSSVKVSCKASGYTFTSYWIHWVRQAPGQGLEWMGEIDPSDSYTNYNQKFKGRVTITADKSTSTAYMELSSLRSEDTAVYYCARSFFTNWFAYWGQGTLVTVSS
VL: DVVMTQTPLSLSVTPGQPASISCRSSQSLVHSNGNTYLHWYLQKPGQSPQLLIYKVSNRFSGVPDRFSGSGSGTDFTLKISRVEAEDVGVYFCSQSTHVPFTFGGGTKVEIKR
notes: humanized from Ab7; G1; also called Ab4 HC.1 and Ab4 LC.1a
For B1, which “fold decrease in affinity against chAb7” value [1] is on record?
The value was about 45 fold.

What about the Kd [2] of the same binder?
The Kd was 8.51 nM.

And the koff [2]?
The koff was 0.00114 s⁻¹.

What about the kon [2] of the same binder?
The kon was 133000 M⁻¹ s⁻¹.

And the Kd [3]?
Its Kd is 1140 nM.

And the koff [3]?
The koff was 0.0568 s⁻¹.

What about the kon [3] of the same binder?
The kon was 49800 M⁻¹ s⁻¹.

What about the Kd [4] of the same binder?
The Kd was 8.13 nM.

And the koff [4]?
The koff was 0.00128 s⁻¹.

What about the kon [4] of the same binder?
Its kon is 157000 M⁻¹ s⁻¹.

And the EC50 [5]?
Its EC50 is 0.538 nM.

What about the EC50 [6] of the same binder?
Its EC50 is 0.556 nM.

And the “Baf3-hPRLR proliferation IC50” value [7]?
Its value is 0.28 µg/mL.

What about the “Baf3-cyPRLR proliferation IC50” value [8] of the same binder?
Its value is 0.41 µg/mL.

And the “Baf3-mPRLR proliferation IC50” value [9]?
The value was over 30 µg/mL.
